# According to article doi:10.1101/2023.01.25.525455:
# Key:
# [1] = target: GFP-tagged VPS35L with complete deletion of the β-hairpin (human) (UniProt Q7Z3J2); experiment: co-IP
# [2] = target: GFP-tagged VPS35L(I761G) (human) (UniProt Q7Z3J2); experiment: co-IP
# GFP-tagged VPS35L(I761G) (human), sequence (Q7Z3J2 whole entry I761G): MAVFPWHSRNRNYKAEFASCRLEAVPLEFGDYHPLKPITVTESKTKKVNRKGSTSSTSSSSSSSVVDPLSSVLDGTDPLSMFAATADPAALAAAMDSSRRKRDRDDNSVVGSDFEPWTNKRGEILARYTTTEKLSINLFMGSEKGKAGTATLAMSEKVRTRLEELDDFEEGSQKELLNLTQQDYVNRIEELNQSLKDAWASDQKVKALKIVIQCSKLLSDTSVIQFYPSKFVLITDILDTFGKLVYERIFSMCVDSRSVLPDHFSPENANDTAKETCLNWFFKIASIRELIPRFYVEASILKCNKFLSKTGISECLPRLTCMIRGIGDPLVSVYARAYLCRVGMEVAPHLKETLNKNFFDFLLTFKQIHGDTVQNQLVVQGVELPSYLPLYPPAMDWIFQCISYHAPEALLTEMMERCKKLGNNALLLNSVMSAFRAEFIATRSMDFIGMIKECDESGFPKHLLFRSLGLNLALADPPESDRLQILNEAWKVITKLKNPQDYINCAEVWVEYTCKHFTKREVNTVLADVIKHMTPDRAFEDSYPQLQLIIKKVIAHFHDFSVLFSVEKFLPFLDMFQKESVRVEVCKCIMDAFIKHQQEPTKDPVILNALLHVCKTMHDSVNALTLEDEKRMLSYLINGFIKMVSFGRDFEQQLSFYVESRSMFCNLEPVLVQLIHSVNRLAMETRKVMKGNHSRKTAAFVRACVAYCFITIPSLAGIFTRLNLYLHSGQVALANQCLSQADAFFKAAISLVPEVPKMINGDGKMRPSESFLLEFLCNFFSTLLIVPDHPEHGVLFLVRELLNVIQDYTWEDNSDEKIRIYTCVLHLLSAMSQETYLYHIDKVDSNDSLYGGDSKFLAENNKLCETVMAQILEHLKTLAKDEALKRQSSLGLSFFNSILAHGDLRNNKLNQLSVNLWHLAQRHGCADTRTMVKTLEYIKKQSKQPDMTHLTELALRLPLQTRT
# GFP-tagged VPS35L with complete deletion of the β-hairpin (human), sequence (Q7Z3J2 whole entry, stated change not applied): as the sequence (Q7Z3J2 whole entry I761G) above, with G761I counted along it
substance,measurement,setting,value
"VPS29 (endogenous, HEK293T) (from UniProt Q9UBQ0 1-182) (natural protein)",percent reduction in binding (against wild type),[1],> 50%
same,percent reduction in binding (against wild type),[2],> 50%
